T1: HsInturned (human Inturned) (human, UniProt Q9ULD6 1-942)
T1 construct: Inturned, human; the N-terminal PDZ domain is not visible in the map; also called FLAG-Inturned; source: Spodoptera frugiperda 21 cells (biGBac), coexpressed with Fuzzy and Rab23^N121I, purified (glutathione agarose, SEC)
T1 sequence: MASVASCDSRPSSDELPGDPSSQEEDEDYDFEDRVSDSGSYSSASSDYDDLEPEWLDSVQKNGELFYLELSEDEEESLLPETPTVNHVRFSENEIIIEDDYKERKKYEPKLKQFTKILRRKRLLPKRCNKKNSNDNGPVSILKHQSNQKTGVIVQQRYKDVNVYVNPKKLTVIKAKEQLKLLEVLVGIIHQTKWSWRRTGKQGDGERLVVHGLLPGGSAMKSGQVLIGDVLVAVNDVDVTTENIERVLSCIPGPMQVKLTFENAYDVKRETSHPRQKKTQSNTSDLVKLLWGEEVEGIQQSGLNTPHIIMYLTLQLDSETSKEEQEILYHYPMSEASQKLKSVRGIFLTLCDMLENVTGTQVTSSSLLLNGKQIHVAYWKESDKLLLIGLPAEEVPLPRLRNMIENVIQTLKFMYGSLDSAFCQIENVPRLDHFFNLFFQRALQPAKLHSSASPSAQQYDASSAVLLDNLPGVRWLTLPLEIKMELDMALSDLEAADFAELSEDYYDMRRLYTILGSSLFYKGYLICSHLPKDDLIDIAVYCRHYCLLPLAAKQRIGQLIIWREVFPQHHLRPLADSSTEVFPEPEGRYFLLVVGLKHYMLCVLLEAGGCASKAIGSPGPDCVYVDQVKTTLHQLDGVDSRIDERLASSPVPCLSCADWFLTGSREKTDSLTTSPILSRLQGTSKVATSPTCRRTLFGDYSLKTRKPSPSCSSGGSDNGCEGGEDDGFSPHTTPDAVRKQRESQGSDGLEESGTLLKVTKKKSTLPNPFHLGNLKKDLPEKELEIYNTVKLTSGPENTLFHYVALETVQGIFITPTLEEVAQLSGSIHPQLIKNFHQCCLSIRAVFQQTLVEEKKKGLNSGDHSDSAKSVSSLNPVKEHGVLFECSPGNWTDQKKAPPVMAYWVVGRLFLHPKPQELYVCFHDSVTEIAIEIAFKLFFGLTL

T2: HsFuzzy-Inturned complex (cryo-EM sample) (human, UniProt Q9BT04 2-418; Q9ULD6 1-942)
T2 construct: Fuzzy, human; as m5; Inturned, human; as m6; Heterodimer of m5 and m6; seen alone and with Rab23^N121I in the same cryo-EM sample; also called dimeric Fuzzy-Inturned complex; source: Spodoptera frugiperda 21 cells (biGBac), coexpressed, purified (glutathione agarose, SEC)
T2 sequence 1: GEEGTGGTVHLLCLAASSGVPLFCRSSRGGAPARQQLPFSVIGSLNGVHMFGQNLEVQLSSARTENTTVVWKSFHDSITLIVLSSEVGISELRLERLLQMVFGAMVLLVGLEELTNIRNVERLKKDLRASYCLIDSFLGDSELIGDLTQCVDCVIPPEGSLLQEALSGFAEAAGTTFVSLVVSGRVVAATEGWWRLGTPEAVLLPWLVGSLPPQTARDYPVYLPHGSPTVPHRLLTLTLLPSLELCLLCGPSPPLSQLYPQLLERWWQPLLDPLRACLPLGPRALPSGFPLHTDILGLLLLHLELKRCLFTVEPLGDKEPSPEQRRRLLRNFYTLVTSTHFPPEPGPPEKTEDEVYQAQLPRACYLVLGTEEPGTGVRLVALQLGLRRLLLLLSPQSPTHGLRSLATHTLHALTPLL
T2 sequence 2: T1 sequence

T3: Fuzzy^LD1-Inturned^LD1 catalytic core complex (human)
T3 sequence (Q9BT04 whole entry, looked up): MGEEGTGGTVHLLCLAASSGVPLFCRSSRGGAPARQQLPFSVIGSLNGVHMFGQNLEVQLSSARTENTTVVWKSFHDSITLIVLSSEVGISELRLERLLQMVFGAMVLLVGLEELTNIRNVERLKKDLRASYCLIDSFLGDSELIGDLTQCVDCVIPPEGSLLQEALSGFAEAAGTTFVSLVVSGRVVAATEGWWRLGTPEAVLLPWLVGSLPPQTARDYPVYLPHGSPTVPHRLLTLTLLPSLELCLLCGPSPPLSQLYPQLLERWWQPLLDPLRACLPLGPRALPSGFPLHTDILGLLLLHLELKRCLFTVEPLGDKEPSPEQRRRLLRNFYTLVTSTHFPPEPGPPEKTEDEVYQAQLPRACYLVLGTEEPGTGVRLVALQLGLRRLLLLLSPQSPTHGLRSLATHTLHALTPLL
T3 sequence (Q9ULD6 whole entry, looked up): T1 sequence

B1: HsFuzzy (human Fuzzy) (natural protein)
chain: T2 sequence 1
notes: Fuzzy, human; also called His-SUMO-Fuzzy; source: Spodoptera frugiperda 21 cells (biGBac), coexpressed with Inturned and Rab23^N121I, purified (glutathione agarose, SEC)
B2: HsRab23^N121I (nucleotide-free mutant of human Rab23) (natural protein)
chain: LEEDMEVAIKMVVVGNGAVGKSSMIQRYCKGIFTKDYKKTIGVDFLERQIQVNDEDVRLMLWDTAGQEEFDAITKAYYRGAQACVLVFSTTDRESFEAVSSWREKVVAEVGDIPTVLVQIKIDLLDDSCIKNEEAEALAKRLKLRFYRTSVKEDLNVNEVFKYLAEKYLQKLKQQIAEDPELTHSSSNKIGVFNTSGGSHSGQNSGTLNGGDVINLRPNKQRTKKNRNPFSSCSIP
notes: Rab23, human; also called GST-Rab23^N121I; source: Spodoptera frugiperda 21 cells (biGBac), coexpressed with Fuzzy and Inturned, purified (glutathione agarose, SEC); not shown: GST, N-terminal, cleaved
B3: Rab23^I33A/T35A (natural protein)
chain: MLEEDMEVAIKMVVVGNGAVGKSSMIQRYCKGAFAKDYKKTIGVDFLERQIQVNDEDVRLMLWDTAGQEEFDAITKAYYRGAQACVLVFSTTDRESFEAVSSWREKVVAEVGDIPTVLVQNKIDLLDDSCIKNEEAEALAKRLKLRFYRTSVKEDLNVNEVFKYLAEKYLQKLKQQIAEDPELTHSSSNKIGVFNTSGGSHSGQNSGTLNGGDVINLRPNKQRTKKNRNPFSSCSIP

Assay [1] has as its target T1, HsInturned (human Inturned). The assay is described as follows: cryo-EM structure; HsFuzzy, HsInturned and HsRab23^N121I coexpressed in insect cells, complex purified; ~0.7 mg/ml; 0.002% lauryl maltose neopentyl glycol on grid; dimeric and trimeric particles in one sample; 50 mM tris, 200 mM NaCl, 0.5 mM TCEP, 1 mM MgCl2 (pH 8). The note with it: both partners purified.

The assay “HsFuzzy (human Fuzzy)” concerns the target B1. The description is as above. The note with it: both partners purified.
Assay [2] concerns the target T2, HsFuzzy-Inturned complex (cryo-EM …). The assay is described as above. The note with it: both partners purified.
Assay [3] deals with T3, Fuzzy^LD1-Inturned^LD1 catalytic core complex (human).

For the molecule B1, the binding result in assay [1] is “binds”.
Take B2: the binding result (with HsFuzzy (human Fuzzy); in assay [2]; in assay [1]) was “binds” throughout.
As for B3, the stimulation of nucleotide exchange (MANT-GDP release) of Rab23^I33A/T35A by Fuzzy^LD1-Inturned^LD1, against Rab23 WT in assay [3] is 5 fold.

The record behind these values is publication PMC12383261, “Mechanistic adaptation of the metazoan RabGEFs Mon1-Ccz1 and Fuzzy-Inturned” (Science Advances, 2025).
